Results taken from patent US20240228595A1 (YALE UNIVERSITY, published 2024).
Read-outs that look alike come from different tables or passages of the source.

What was measured:
[1] = target: T1, SARS-COV-2 Omicron RBD recombinant protein (Sino Biological 40592-V08H121) (SARS-CoV-2 Omicron BA.1, UniProt P0DTC2 319-541)
[2] = target: T1, SARS-COV-2 Omicron RBD recombinant …; remark: listed apart in the source
[3] = target: T1, SARS-COV-2 Omicron RBD recombinant …; remark: listed apart in the source
[4] = target: T1, SARS-COV-2 Omicron RBD recombinant …; remark: listed apart in the source
[5] = target: T1, SARS-COV-2 Omicron RBD recombinant …; remark: listed apart in the source
[6] = target: T1, SARS-COV-2 Omicron RBD recombinant …; test: BLI (Octet); by the text the format with mAb immobilised and soluble Omicron RBD
[7] = target: T1, SARS-COV-2 Omicron RBD recombinant …; test: ELISA, SARS-CoV-2-Omicron BA.1 RBD coated, antibody titrated
[8] = target: T1, SARS-COV-2 Omicron RBD recombinant …; remark: listed apart in the source
[9] = target: SARS-COV-2 Omicron BA.1 spike on HIV-1 based pseudovirus (Example 3) (SARS-CoV-2 Omicron BA.1, UniProt P0DTC2 14-1273); test: cell-based or functional assay
[10] = target: SARS-COV-2 Omicron BA.1.1 spike on HIV-1 based pseudovirus (SARS-CoV-2 Omicron BA.1.1, UniProt P0DTC2 14-1273); test: cell-based or functional assay
[11] = target: SARS-COV-2 Omicron BA.2 spike on HIV-1 based pseudovirus (SARS-CoV-2 Omicron BA.2, UniProt P0DTC2 14-1273); test: cell-based or functional assay
[12] = target: SARS-COV-2 Omicron (B.1.1.529) full length spike on HIV-1 based pseudovirus (Example 2) (SARS-CoV-2 Omicron, UniProt P0DTC2 14-1273); test: cell-based or functional assay

B1: MB.08 (antibody, V domains shown)
VH: QVQLQESGPGLVKPSETLSLTCTVSGGSISSYYWSWIRQPPGKGLEWIGYIYYSGSTNYNPSLKSRVTISVDTSKNQFSLKLSSVTAADTAVYYCARGLTGGDAFDIWGQGTMVTVSS
VL: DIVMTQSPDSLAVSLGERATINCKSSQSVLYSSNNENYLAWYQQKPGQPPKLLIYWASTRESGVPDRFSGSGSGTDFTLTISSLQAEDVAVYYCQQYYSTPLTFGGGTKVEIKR
Q: How did the koff [1] turn out when B1 was run?
A: Its koff is 0.00536 s⁻¹.

Q: What about the kon [1] of the same binder?
A: The kon was 418000 M⁻¹ s⁻¹.

Q: And the EC50 [2]?
A: Its EC50 is 0.0122 µg/mL.

Q: What about the Kd [3] of the same binder?
A: The Kd was under 0.001 nM.

Q: What about the “EC50 (read off the curve)” value [4] of the same binder?
A: Its value is about 0.2 µg/mL.

Q: And the koff [5]?
A: Its koff is under 1e-07 s⁻¹.

Q: What about the kon [5] of the same binder?
A: The kon was 172000 M⁻¹ s⁻¹.

Q: And the Kd [6]?
A: Its Kd is 7.16 nM.

Q: And the EC50 [7]?
A: Its EC50 is 0.0014 µg/mL.

Q: And the koff [8]?
A: Its koff is 0.00536 s⁻¹.

Q: What about the kon [8] of the same binder?
A: The kon was 418000 M⁻¹ s⁻¹.

B2: CoV2-0213 (bispecific antibody, human IgG1, kappa)
heavy 1: not shown
light 1: DIQMTQSPSSLSASVGDRVTITCRASESVEYYGTSLMQWYQQKPGKAPKLLIYAASNVESGVPARFSGSGSGTDFTLTISSLQPEDFATYYCQQSRKVPWTFGQGTKVEIKRSSASTKGPSVFPLAPSSKSTSGGTAALGCLVKDYFPEPVTVSWNSGALTSGVHTFPAVLQSSGLYSLSSVVTVPSSSLGTQTYICNVNHKPSNTKVDKKVEPKSC
heavy 2: not shown
light 2: not shown
Q: What does the source list for B2?
A: pseudovirus neutralization, IC50 [9]: 0.044 µg/mL; pseudovirus neutralization, IC50 [10]: 0.062 µg/mL; pseudovirus neutralization, IC50 [11]: 0.078 µg/mL; pseudovirus neutralization, fold more effective than S309/Sotrovimab [11]: ~78 fold

B3: Clone 2 (antibody, V domains shown)
VH: EVQLQQSGPELVKPGASVKISCKASGYSFTGYSMNWMKQSPEKSLEWIGEINPSTGGTTDNQKFKAKATLTVDKSSSTAYMQLKSLTSEDSAVYYCARSRGDYWGQGTSVTVSS
VL: DIVLTQSPASLAVSLGQRATISCRASESVEYYGTSLMQWYQQKPGQPPKVLIYAASNVESGVPARFSGSGSGTDFSLNIHPVEEDDIAMYFCQQSRKVPWTFGGGTKLEIKR
Q: How did the “pseudovirus neutralization, IC50” value [12] turn out when B3 was run?
A: Its value is 0.396 µg/mL.
